This note sets out measurements from patent US20110111406A1 (published 2011).

Read-outs that look alike come from different tables or passages of the source.

Experiment [1] concerns the target T1, recombinant soluble human IL-6 receptor (SR344) (human, UniProt P08887 20-344).
T1 construct: In the 'membrane-type IL-6 receptor' Biacore assays the same SR344 was biotinylated and immobilized via streptavidin; also called soluble IL-6 receptor; membrane-type IL-6 receptor (as biotinylated SR344 immobilized on the sensor chip)
T1 sequence (looked up): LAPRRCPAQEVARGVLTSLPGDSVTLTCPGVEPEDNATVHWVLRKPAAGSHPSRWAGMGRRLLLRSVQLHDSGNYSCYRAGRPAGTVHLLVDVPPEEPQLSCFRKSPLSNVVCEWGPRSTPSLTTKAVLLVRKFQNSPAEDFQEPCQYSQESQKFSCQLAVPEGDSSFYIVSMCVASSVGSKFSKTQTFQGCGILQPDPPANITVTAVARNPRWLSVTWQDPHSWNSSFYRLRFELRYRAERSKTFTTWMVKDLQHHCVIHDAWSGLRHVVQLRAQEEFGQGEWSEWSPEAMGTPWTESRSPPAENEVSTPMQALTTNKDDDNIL
The experiment is described as follows: Biacore T100, biotinylated SR344 immobilized via streptavidin (membrane-type IL-6 receptor model), antibody as analyte; ratio of kd at pH 5.8 to pH 7.4. On the procedure:
(§1) Binding to the membrane-type IL-6 receptor was evaluated by evaluating binding to the IL-6 receptor immobilized on a sensor chip. SR344 was biotinylated in accordance with a method known among persons with ordinary skill in the art, and the biotinylated SR344 was immobilized on the sensor chip via streptavidin using the affinity between streptavidin and biotin. All the measurements were carried out at 37° C. The mobile phase buffer was 10 mM MES (pH 5.8), 150 mM NaCl and 0.05% Tween 20.
(§2) The pH-dependently-binding clones were injected under the condition of pH 7.4 to allow them to bind to SR344, and then, the pH-dependent dissociation of each clone at the pH of the mobile phase, pH 5.8, was observed. The results are shown in FIG. 21 (results for Fv1-M71, Fv1-M73, Fv3-M71, and Fv3-M73 are shown in FIG. 21, while results for other clones are shown in FIGS. 17 and 19). Analyses were carried out in the same manner as in Example 10 and the pH dependencies of the dissociation rate constants of all of the eleven types of clones are shown in Table 12.

The target in experiment [2] is T1, recombinant soluble human IL-6 receptor …. The experiment is described as above. On the procedure:
as §1, §2
The source holds these as a separate data set.

B1: Fv4-M58 (antibody)
heavy: QVQLQESGPGLVKPSETLSLTCAVSGHSISHDHAWSWVRQPPGEGLEWIGFISYSGITNYNPSLQGRVTISRDNSKNTLYLQMNSLRAEDTAVYYCARSLARTTAMDYWGEGTLVTVSSASTKGPSVFPLAPSSKSTSGGTAALGCLVKDYFPEPVTVSWNSGALTSGVHTFPAVLQSSGLYSLSSVVTVPSSNFGTQTYTCNVDHKPSNTKVDKTVERKSCVECPPCPAPPVAGPSVFLFPPKPKDTLMISRTPEVTCVVVDVSQEDPEVQFNWYVDGVEVHNAKTKPREEQFNSTFRVVSVLTVVHQDWLNGKEYKCKVSNKGLPAPIEKTISKTKGQPREPQVYTLPPSQEEMTKNQVSLTCLVKGFYPSDIAVEWESNGQPENNYKTTPPMLDSDGSFFLYSKLTVDKSRWQEGNVFSCSVMHEALHNHYTQKSLSLSP
light: DIQMTQSPSSLSASVGDSVTITCQASTDISSHLNWYQQKPGKAPELLIYYGSHLLSGVPSRFSGSGSGTDFTFTISSLEAEDAATYYCGQGNRLPYTFGQGTKVEIERTVAAPSVFIFPPSDEQLKSGTASVVCLLNNFYPREAKVQWKVDNALQSGNSQESVTEQDSKDSTYSLSSTLTLSKADYEKHKVYACEVTHQGLSSPVTKSFNRGEC
notes: also called VH3-M58/VL3-CK
B1: the “kd(pH 5.8)/kd(pH 7.4)” value in experiment [1] and in experiment [2] was 17.6 each time.

B2: Fv3-M71 (antibody, human IgG2, kappa)
heavy: QVQLQESGPGLVKPSETLSLTCAVSGHSISHDHAWSWVRQPPGEGLEWIGFISYSGITNYNPTLQGRVTISRDNSKNTLYLQMNSLRAEDTAVYYCARSLARTTAMDYWGEGTLVTVSSASTKGPSVFPLAPCSRSTSESTAALGCLVKDYFPEPVTVSWNSGALTSGVHTFPAVLQSSGLYSLSSVVTVPSSNFGTQTYTCNVDHKPSNTKVDKTVERKCCVECPPCPAPPVAGPSVFLFPPKPKDTLMISRTPEVTCVVVDVSHEDPEVQFNWYVDGVEVHNAKTKPREEQFNSTFRVVSVLTVVHQDWLNGKEYKCKVSNKGLPAPIEKTISKTKGQPREPQVYTLPPSREEMTKNQVSLTCLVKGFYPSDIAVEWESNGQPENNYKTTPPMLDSDGSFFLYSKLTVDKSRWQQGNVFSCSVMHEALHAHYTQKSLSLSPGK
light: DIQMTQSPSSLSASVGDSVTITCQASRDISSHLNWYQQKPGKAPELLIYYGSHLLSGVPSRFSGSGSGTDFTFTISSLEAEDAATYYCGQGNRLPYTFGQGTKVEIERTVAAPSVFIFPPSDEQLKSGTASVVCLLNNFYPREAKVQWKVDNALQSGNSQESVTEQDSKDSTYSLSSTLTLSKADYEKHKVYACEVTHQGLSSPVTKSFNRGEC
notes: also called VH4-M71/VL1-CK
For B2, in experiment [2], the “kd(pH 5.8)/kd(pH 7.4)” value was found to be 10.7.

B3: Fv1-M71 (antibody, human IgG2, kappa)
heavy: QVQLQESGPGLVKPSETLSLTCAVSGYSISHDHAWSWVRQPPGEGLEWIGHISYSGITNYNPHLQDRVTISRDTSKNQFSLKLSSVTAADTAVYYCARFLARITAHDHWGEGTLVTVSSASTKGPSVFPLAPCSRSTSESTAALGCLVKDYFPEPVTVSWNSGALTSGVHTFPAVLQSSGLYSLSSVVTVPSSNFGTQTYTCNVDHKPSNTKVDKTVERKCCVECPPCPAPPVAGPSVFLFPPKPKDTLMISRTPEVTCVVVDVSHEDPEVQFNWYVDGVEVHNAKTKPREEQFNSTFRVVSVLTVVHQDWLNGKEYKCKVSNKGLPAPIEKTISKTKGQPREPQVYTLPPSREEMTKNQVSLTCLVKGFYPSDIAVEWESNGQPENNYKTTPPMLDSDGSFFLYSKLTVDKSRWQQGNVFSCSVMHEALHAHYTQKSLSLSPGK
light: DIQMTQSPSSLSASVGDSVTITCQASRDISSHLNWYQQKPGKAPELLIYYGSHLESGVPSRFSGSGSGTDFTFTISSLEAEDAATYYCGQGNRLPYTFGQGTKVEIERTVAAPSVFIFPPSDEQLKSGTASVVCLLNNFYPREAKVQWKVDNALQSGNSQESVTEQDSKDSTYSLSSTLTLSKADYEKHKVYACEVTHQGLSSPVTKSFNRGEC
notes: also called VH2-M71/VL2-CK
On to B3, for which the “kd(pH 5.8)/kd(pH 7.4)” value in experiment [2] is 11.3.

B4: Fv1-M73 (antibody)
heavy: QVQLQESGPGLVKPSETLSLTCAVSGYSISHDHAWSWVRQPPGEGLEWIGHISYSGITNYNPHLQDRVTISRDTSKNQFSLKLSSVTAADTAVYYCARFLARITAHDHWGEGTLVTVSSASTKGPSVFPLAPSSKSTSGGTAALGCLVKDYFPEPVTVSWNSGALTSGVHTFPAVLQSSGLYSLSSVVTVPSSNFGTQTYTCNVDHKPSNTKVDKTVERKSCVECPPCPAPPVAGPSVFLFPPKPKDTLMISRTPEVTCVVVDVSQEDPEVQFNWYVDGVEVHNAKTKPREEQFNSTFRVVSVLTVVHQDWLNGKEYKCKVSNKGLPAPIEKTISKTKGQPREPQVYTLPPSQEEMTKNQVSLTCLVKGFYPSDIAVEWESNGQPENNYKTTPPMLDSDGSFFLYSKLTVDKSRWQEGNVFSCSVMHEALHAHYTQKSLSLSP
light: DIQMTQSPSSLSASVGDSVTITCQASRDISSHLNWYQQKPGKAPELLIYYGSHLESGVPSRFSGSGSGTDFTFTISSLEAEDAATYYCGQGNRLPYTFGQGTKVEIERTVAAPSVFIFPPSDEQLKSGTASVVCLLNNFYPREAKVQWKVDNALQSGNSQESVTEQDSKDSTYSLSSTLTLSKADYEKHKVYACEVTHQGLSSPVTKSFNRGEC
notes: also called VH2-M73/VL2-CK
In the case of B4, in experiment [2], the “kd(pH 5.8)/kd(pH 7.4)” value is 8.8.

B5: Fv4-IgG2 (antibody)
heavy: QVQLQESGPGLVKPSETLSLTCAVSGHSISHDHAWSWVRQPPGEGLEWIGFISYSGITNYNPSLQGRVTISRDNSKNTLYLQMNSLRAEDTAVYYCARSLARTTAMDYWGEGTLVTVSSASTKGPSVFPLAPCSRSTSESTAALGCLVKDYFPEPVTVSWNSGALTSGVHTFPAVLQSSGLYSLSSVVTVPSSNFGTQTYTCNVDHKPSNTKVDKTVERKCCVECPPCPAPPVAGPSVFLFPPKPKDTLMISRTPEVTCVVVDVSHEDPEVQFNWYVDGVEVHNAKTKPREEQFNSTFRVVSVLTVVHQDWLNGKEYKCKVSNKGLPAPIEKTISKTKGQPREPQVYTLPPSREEMTKNQVSLTCLVKGFYPSDIAVEWESNGQPENNYKTTPPMLDSDGSFFLYSKLTVDKSRWQQGNVFSCSVMHEALHNHYTQKSLSLSP
light: DIQMTQSPSSLSASVGDSVTITCQASTDISSHLNWYQQKPGKAPELLIYYGSHLLSGVPSRFSGSGSGTDFTFTISSLEAEDAATYYCGQGNRLPYTFGQGTKVEIERTVAAPSVFIFPPSDEQLKSGTASVVCLLNNFYPREAKVQWKVDNALQSGNSQESVTEQDSKDSTYSLSSTLTLSKADYEKHKVYACEVTHQGLSSPVTKSFNRGEC
notes: also called Fv4-IgG2ΔGK; VH3-IgG2ΔGK/VL3-CK
Turning to B5, the “kd(pH 5.8)/kd(pH 7.4)” value in experiment [1] and in experiment [2] was 17 in each case.

B6: Fv3-M73 (antibody)
heavy: QVQLQESGPGLVKPSETLSLTCAVSGHSISHDHAWSWVRQPPGEGLEWIGFISYSGITNYNPTLQGRVTISRDNSKNTLYLQMNSLRAEDTAVYYCARSLARTTAMDYWGEGTLVTVSSASTKGPSVFPLAPSSKSTSGGTAALGCLVKDYFPEPVTVSWNSGALTSGVHTFPAVLQSSGLYSLSSVVTVPSSNFGTQTYTCNVDHKPSNTKVDKTVERKSCVECPPCPAPPVAGPSVFLFPPKPKDTLMISRTPEVTCVVVDVSQEDPEVQFNWYVDGVEVHNAKTKPREEQFNSTFRVVSVLTVVHQDWLNGKEYKCKVSNKGLPAPIEKTISKTKGQPREPQVYTLPPSQEEMTKNQVSLTCLVKGFYPSDIAVEWESNGQPENNYKTTPPMLDSDGSFFLYSKLTVDKSRWQEGNVFSCSVMHEALHAHYTQKSLSLSP
light: DIQMTQSPSSLSASVGDSVTITCQASRDISSHLNWYQQKPGKAPELLIYYGSHLLSGVPSRFSGSGSGTDFTFTISSLEAEDAATYYCGQGNRLPYTFGQGTKVEIERTVAAPSVFIFPPSDEQLKSGTASVVCLLNNFYPREAKVQWKVDNALQSGNSQESVTEQDSKDSTYSLSSTLTLSKADYEKHKVYACEVTHQGLSSPVTKSFNRGEC
notes: also called VH4-M73/VL1-CK
Turning to B6, in experiment [2], the “kd(pH 5.8)/kd(pH 7.4)” value is 10.9.

B7: Fv4-M73 (antibody)
heavy: QVQLQESGPGLVKPSETLSLTCAVSGHSISHDHAWSWVRQPPGEGLEWIGFISYSGITNYNPSLQGRVTISRDNSKNTLYLQMNSLRAEDTAVYYCARSLARTTAMDYWGEGTLVTVSSASTKGPSVFPLAPSSKSTSGGTAALGCLVKDYFPEPVTVSWNSGALTSGVHTFPAVLQSSGLYSLSSVVTVPSSNFGTQTYTCNVDHKPSNTKVDKTVERKSCVECPPCPAPPVAGPSVFLFPPKPKDTLMISRTPEVTCVVVDVSQEDPEVQFNWYVDGVEVHNAKTKPREEQFNSTFRVVSVLTVVHQDWLNGKEYKCKVSNKGLPAPIEKTISKTKGQPREPQVYTLPPSQEEMTKNQVSLTCLVKGFYPSDIAVEWESNGQPENNYKTTPPMLDSDGSFFLYSKLTVDKSRWQEGNVFSCSVMHEALHAHYTQKSLSLSP
light: DIQMTQSPSSLSASVGDSVTITCQASTDISSHLNWYQQKPGKAPELLIYYGSHLLSGVPSRFSGSGSGTDFTFTISSLEAEDAATYYCGQGNRLPYTFGQGTKVEIERTVAAPSVFIFPPSDEQLKSGTASVVCLLNNFYPREAKVQWKVDNALQSGNSQESVTEQDSKDSTYSLSSTLTLSKADYEKHKVYACEVTHQGLSSPVTKSFNRGEC
notes: also called VH3-M73/VL3-CK
B7: the “kd(pH 5.8)/kd(pH 7.4)” value in experiment [1] and in experiment [2] was 10.1 in each case.
